Assay results from FireProtDB (doi:10.1016/s0022-2836(99)80018-7).

B1: Ribonuclease, P00648 (parent)
chain: MMKMEGIALKKRLSWISVCLLVLVSAAGMLFSTAAKTETSSHKAHTEAQVINTFDGVADYLQTYHKLPDNYITKSEAQALGWVASKGNLADVAPGKSIGGDIFSNREGKLPGKSGRTWREADINYTSGFRNSDRILYSSDWLIYKTTDHYQTFTKIR

Variants of: B1
Conditions: Bacillus amyloliquefaciens; pH 6.3; 25 °C; Urea; Fluorescence; MES 50 mM; reversible: yes; structure 1BNI; whole UniProt chain shown

Q: What does the source list for MMKMEGIALKKRLSWISVCLLVLVSAAGMLFSTAAKTETSSHKAHTEAQVINTFAGVADYLQTYHKLPDNYITKSEAQALGWVASKGNLADVAPGKSIGGDIFSNREGKLPGKSGRTWREADINYTSGFRNSDRILYSSDWLIYKTTDHYQTFTKIR [D55A]?
A: ddG of mutation (higher = less stable): 0.99 kcal/mol; denaturant m value: 2.15 kcal/mol/M; denaturant midpoint (higher = more stable): 4.12 M; unfolding free energy: 8.94 kcal/mol

Q: Which “ddG of mutation (higher = less stable)” value does the source give for MMKMEGIALKKRLSWISVCLLVLVSAAGMLFSTAAKTETSSHKAHTEAQVINTFDGVADYLQTYHKLPDNYITKSEAQALGWVASKGNLADVAPGKSIGGDIFSNREGKLPGKSGRTWREADINYTSGFRNSDRILYSSDWLIYKTTDHYQTFTKIA [R157A] here?
A: 0.46 kcal/mol

Q: What about the denaturant m value of the same variant?
A: 2.26 kcal/mol/M

Q: What about the “denaturant midpoint (higher = more stable)” value (shortened to “denaturant midpoint”) of the same variant?
A: 4.37 M

Q: What about the unfolding free energy of the same variant?
A: 9.47 kcal/mol

Q: Which “ddG of mutation (higher = less stable)” value does the source give for MMKMEGIALKKRLSWISVCLLVLVSAAGMLFSTAAKTETSSHKAHTEAQVINTFAGVADYLQTYHKLPDNYITKSEAQALGWVASKGNLADVAPGKSIGGDIFSNREGKLPGKSGRTWREADINYTSGFRNSDRILYSSDWLIYKTTDHYQTFTKIA [D55A R157A] here?
A: 0.47 kcal/mol

Q: And the denaturant m value?
A: 1.96 kcal/mol/M

Q: What about the “denaturant midpoint” value of the same variant?
A: 4.36 M

Q: And the unfolding free energy?
A: 9.46 kcal/mol

Q: For MMKMEGIALKKRLSWISVCLLVLVSAAGMLFSTAAKTETSSHKAHTEAQVINTFDGVAAYLQTYHKLPDNYITKSEAQALGWVASKGNLADVAPGKSIGGDIFSNREGKLPGKSGRTWREADINYTSGFRNSDRILYSSDWLIYKTTDHYQTFTKIR [D59A], which “ddG of mutation (higher = less stable)” value is on record?
A: 0.34 kcal/mol

Q: And the denaturant m value?
A: 2.12 kcal/mol/M

Q: And the “denaturant midpoint” value?
A: 4.42 M

Q: And the unfolding free energy?
A: 9.59 kcal/mol

Q: Which “ddG of mutation (higher = less stable)” value does the source give for MMKMEGIALKKRLSWISVCLLVLVSAAGMLFSTAAKTETSSHKAHTEAQVINTFDGVAAYLQTYHKLPDNYITKSEAQALGWVASKGNLADVAPGKSIGGDIFSNREGKLPGKSGRTWREADINYTSGFRNSDRILYSSDWLIYKTTDHYQTFTKIA [D59A R157A] here?
A: -0.45 kcal/mol

Q: What about the denaturant m value of the same variant?
A: 2.14 kcal/mol/M

Q: What about the “denaturant midpoint” value of the same variant?
A: 4.78 M

Q: And the unfolding free energy?
A: 10.4 kcal/mol

Q: For MMKMEGIALKKRLSWISVCLLVLVSAAGMLFSTAAKTETSSHKAHTEAQVINTFAGVAAYLQTYHKLPDNYITKSEAQALGWVASKGNLADVAPGKSIGGDIFSNREGKLPGKSGRTWREADINYTSGFRNSDRILYSSDWLIYKTTDHYQTFTKIR [D55A D59A], which “ddG of mutation (higher = less stable)” value is on record?
A: 0.89 kcal/mol

Q: What about the denaturant m value of the same variant?
A: 1.98 kcal/mol/M

Q: And the “denaturant midpoint” value?
A: 4.16 M

Q: What about the unfolding free energy of the same variant?
A: 9.04 kcal/mol

Q: With MMKMEGIALKKRLSWISVCLLVLVSAAGMLFSTAAKTETSSHKAHTEAQVINTFAGVAAYLQTYHKLPDNYITKSEAQALGWVASKGNLADVAPGKSIGGDIFSNREGKLPGKSGRTWREADINYTSGFRNSDRILYSSDWLIYKTTDHYQTFTKIA [D55A D59A R157A] as the variant, how does the “ddG of mutation (higher = less stable)” value read?
A: -0.11 kcal/mol

Q: What about the denaturant m value of the same variant?
A: 2.16 kcal/mol/M

Q: And the “denaturant midpoint” value?
A: 4.63 M

Q: What about the unfolding free energy of the same variant?
A: 10 kcal/mol
